Target: T1, amyloid β protein fragment 1–42 (synthetic Aβ peptide, oligomer preparation) (UniProt P05067 672-713)
T1 construct: amyloid beta 1-42, the cut product of the amyloid precursor protein; One preparation that holds monomeric and oligomeric forms, which are seen as separate bands on non-reducing SDS-PAGE; also called Aβ1–42; Aβ oligomers; source: synthetic peptide; oligomers prepared from hexafluoroisopropanol film, DMSO, Hams F-12, 4 °C for 24 h, supernatant after 14,000 x g
Assay: pull-down; glutathione beads coated with 500 ng GST0 or GST fusion protein, incubated with 100 pM Aβ oligomers in 50 mM Tris-HCl pH7.5, 5 mM MgCl2, 20 mM KCl, 500 µg/mL BSA for 1 h at RT; washed, eluted under non-reducing conditions, SDS-PAGE and Western blot with 6E10
Settings: both partners purified

B1: GST-Rs recombinant fusion protein (integrin β1 signal peptide, amino acids 1–20) (domain or fragment, UniProt P05556 1-20, looked up)
chain: MNLQPIFWIGLISSVCCVFA
notes: signal peptide in the construct; integrin β1 (ITGβ1) amino acids 1-20, PCR from pCMV6-XL5-ITGB1 (Origene); The fragment was cloned through EcoRI sites, so linker residues from the vector are likely; The printed forward primer (ATG AAT TTA CAA CC) encodes M-N-L-Q-P, which fits the human cDNA; also called Rs peptide; recombinant integrin β1 signal peptide
binding result: binds
